Data on four molecules can be found in US20150031748A1 (AGENCY FOR SCIENCE TECHNOLOGY AND RESEARCH, published 2015).

In test [1] the target is T1, HA-Slug (full length mouse Slug in pDHA, two HA tags) (Mus musculus, UniProt P97469 1-269, 35S-methionine labelled in Example 5).
T1 construct: also called pDHA-Slug; HA tagged Slug; not shown: the two HA tags of the pDHA vector and any vector linker
T1 sequence: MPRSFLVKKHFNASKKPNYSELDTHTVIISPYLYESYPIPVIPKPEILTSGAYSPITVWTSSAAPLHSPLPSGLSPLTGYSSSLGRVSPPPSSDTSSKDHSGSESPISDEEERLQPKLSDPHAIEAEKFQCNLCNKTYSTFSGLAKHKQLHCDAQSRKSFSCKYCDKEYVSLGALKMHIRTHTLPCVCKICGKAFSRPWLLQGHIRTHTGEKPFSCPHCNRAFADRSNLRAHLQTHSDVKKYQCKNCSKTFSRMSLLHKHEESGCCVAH
Description: GST pull-down of 35S-labeled in vitro translated protein, autoradiography. As for the experimental part:
In vitro translation was carried out using Quick Coupled T7 TNT System (Promega, Madson, Wis.) according to the manufacturers protocol. Slug, EX and ZNF cloned into the pDHA vector were in vitro translated and labeled with 35S Methionine. GST, GST-ZO-2 SGA, GST-ZO-2 SH3, GST-20-2 GA, GST-ZO-2 AP and GST-ZO-2 P were produced, purified as described above and were bound to glutathione Sepharose-4B (Amersham Biosciences, Piscataway, N.J., USA) following standard protocols.
Purified GST-fusion proteins were quantified by SDS-PAGE by comparing with known amounts of BSA as standards. 20 μl bed volume of beads carrying 20 μg of GST or the above GST fused ZO-2 truncated proteins were incubated with 10 μl of in vitro translated 35S Methionine labeled, HA tagged Slug, EX or ZNF and topped up with 200 μl of buffer B (PBS with 1% TX-100 PBS, 1 mM EDTA, Complete EDTA free protease inhibitor cocktail (Roche Diagnostics, Indianapolis, Ind.), 1 mM dithiothreitol (DTT), 300 μg/ml Benzamiidine) for 3 h at 4° C. The beads were washed three times with 500 μl of buffer B each time. This was followed by suspension in 30 μl of SDS sample buffer and the analysis of the bound proteins by running through a 15% SDS-PAGE gel and autoradiography, with a 2 to 3 day exposure period. To reciprocate the binding, GST, GST-Slug and GST-ZNF were used as baits. […]

The target of test [2] is T2, GST-ZO-2SGA (canine ZO-2 amino acids 575-947 in pGEX-6P-1) (Canis lupus familiaris, UniProt Q95168 575-947).
T2 construct: also called GST-ZO2 SGA WT
T2 sequence: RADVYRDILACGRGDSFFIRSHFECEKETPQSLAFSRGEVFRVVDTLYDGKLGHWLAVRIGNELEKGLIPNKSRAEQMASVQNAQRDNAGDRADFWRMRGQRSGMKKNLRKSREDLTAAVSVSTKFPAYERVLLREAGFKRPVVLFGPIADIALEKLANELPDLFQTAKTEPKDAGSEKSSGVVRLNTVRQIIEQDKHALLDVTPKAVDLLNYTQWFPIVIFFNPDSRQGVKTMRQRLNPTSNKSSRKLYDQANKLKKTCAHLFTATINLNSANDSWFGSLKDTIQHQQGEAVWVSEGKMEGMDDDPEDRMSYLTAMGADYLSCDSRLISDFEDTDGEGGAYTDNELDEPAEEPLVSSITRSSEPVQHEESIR
Description: GST binding assay with GFP-Slug MDCK lysate, anti-Slug blot.

Test [3] addresses T3, canine ZO-3 SGA domain (amino acids 450-899) in bait vector pGBKT7 (canine, UniProt P04386 1-147; O62683 450-898).
T3 construct: Yeast two-hybrid bait; also called canine ZO-3 SGC domain
Description: yeast two-hybrid, QDO growth and beta-galactosidase activity. The source says:
(§1) All experimental details were according to the manufacturer's protocols. Clones were screened at high stringency with a quadruple (-Trp, -Leu, -His, -Ade) dropout media and then tested for α- and β-galactosidase activity. Library plasmids with the cDNA inserts from positive clones were isolated and sequenced, resulting in the identification of the entire Slug cDNA. The interaction was retested by transforming this Slug cDNA plasmid with bait vectors carrying the human ZO-1 SGA domain (amino acids 490-883), the canine ZO-2 SGA (amino acids 575-945), SH3 (amino acids 575-713), as well as the GA domain (amino acids 714-945) or the canine ZO-3 […] domain (amino acids 450-899). Empty pGBKT7 and a bait plasmid with […] cDNA (Clontech) were used as negative controls.
(§2) The interaction was retested by transforming this Slug cDNA plasmid with bait vectors carrying the human ZO-1SGA domain (amino acids 490-883), the canine ZO-2SGA (amino acids 575-945), SH3 (amino acids 575-713), GA domain (amino acids 714-945), as well as the canine ZO-3SGA domain (amino acids 450-899). Interactions were determined by monitoring the growth of the co-transformed yeasts in on selective media & β-galactosidase activity. […]

For test [4], the target named is T4, human ZO-1 SGA domain (amino acids 490-883) in bait vector pGBKT7 (human, UniProt P04386 1-147; Q07157 490-883).
T4 construct: Yeast two-hybrid bait
The description is as above.
Text: as §1, §2

Test [5] concerns the target T5, MYC tagged GA domain of canine ZO-3 (amino acids 606-899), in vitro translated (canine, UniProt O62683 606-898).
T5 construct: range 606-899; also called MYC-ZO-3GA; ZO-3GA; not shown: MYC tag from pGBKT7
T5 sequence (looked up): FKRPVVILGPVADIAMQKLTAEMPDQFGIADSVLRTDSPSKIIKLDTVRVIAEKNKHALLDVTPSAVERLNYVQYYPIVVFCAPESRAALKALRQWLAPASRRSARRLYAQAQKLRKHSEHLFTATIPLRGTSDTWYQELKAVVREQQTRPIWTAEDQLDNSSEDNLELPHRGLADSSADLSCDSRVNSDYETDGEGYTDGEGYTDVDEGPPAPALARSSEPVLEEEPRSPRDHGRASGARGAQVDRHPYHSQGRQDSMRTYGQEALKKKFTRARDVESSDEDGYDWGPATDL
Description: GST pull-down of in vitro translated MYC-tagged GA domain, anti-myc blot.

B1: GST-ZO-2P (proline rich domain, canine ZO-2 amino acids 948-1174 in pGEX-6P-1) (other)
chain: KPSPEPRAQMRRAASRDQLRDSSPPPAFKPEPPKAKTQNREESFDISRSHDYKSNPSAVAGNEVSGASTRSCPPPIAAKPSFGRSILKPSTPVPSPESEEVGEGSEEQEGAPKSVLGKVKIFEKMDHKARLQRMQELQEAQNARIEIAQKHPDIYAVPIKTHKPDPGLSQHTSSRPPEPQKGPSRLYQDPRGSYGSDAEEEEYRQQLSEHSKRGYYSQPSRYRDTEL
notes: also called the P; not shown: GST of pGEX-6P-1 and its linker (PreScission site, cloning-site residues)
As for B1, the binding result in test [1] is “no binding”.

B2: GFP-Slug (full length mouse Slug in pEGFP, stably expressed in MDCK cells) (other)
chain: MPRSFLVKKHFNASKKPNYSELDTHTVIISPYLYESYPIPVIPKPEILTSGAYSPITVWTSSAAPLHSPLPSGLSPLTGYSSSLGRVSPPPSSDTSSKDHSGSESPISDEEERLQPKLSDPHAIEAEKFQCNLCNKTYSTFSGLAKHKQLHCDAQSRKSFSCKYCDKEYVSLGALKMHIRTHTLPCVCKICGKAFSRPWLLQGHIRTHTGEKPFSCPHCNRAFADRSNLRAHLQTHSDVKKYQCKNCSKTFSRMSLLHKHEESGCCVAH
notes: not shown: EGFP of the pEGFP vector and its linker to Slug
Take B2: the binding result in test [2] is given as “binds”.

B3: full-length mouse Slug fused to the GAL4 transactivator domain (library clone 30A) (other, not shown: small tags and cut ends)
chain: MPRSFLVKKHFNASKKPNYSELDTHTVIISPYLYESYPIPVIPKPEILTSGAYSPITVWTSSAAPLHSPLPSGLSPLTGYSSSLGRVSPPPSSDTSSKDHSGSESPISDEEERLQPKLSDPHAIEAEKFQCNLCNKTYSTFSGLAKHKQLHCDAQSRKSFSCKYCDKEYVSLGALKMHIRTHTLPCVCKICGKAFSRPWLLQGHIRTHTGEKPFSCPHCNRAFADRSNLRAHLQTHSDVKKYQCKNCSKTFSRMSLLHKHEESGCCVAH
notes: Yeast two-hybrid prey, full length; also called pGADT7-Slug
On to B3, for which the binding result in test [3] and in test [4] was “no binding” each time.

B4: GST-Slug (full length mouse Slug in pGEX4T-1) (other)
chain: MPRSFLVKKHFNASKKPNYSELDTHTVIISPYLYESYPIPVIPKPEILTSGAYSPITVWTSSAAPLHSPLPSGLSPLTGYSSSLGRVSPPPSSDTSSKDHSGSESPISDEEERLQPKLSDPHAIEAEKFQCNLCNKTYSTFSGLAKHKQLHCDAQSRKSFSCKYCDKEYVSLGALKMHIRTHTLPCVCKICGKAFSRPWLLQGHIRTHTGEKPFSCPHCNRAFADRSNLRAHLQTHSDVKKYQCKNCSKTFSRMSLLHKHEESGCCVAH
notes: Full length Slug; not shown: GST and the protease-site linker encoded by pGEX4T-1
Consider B4, for which the binding result in test [5] is recorded as “no binding”.
